{
  "source": "paper doi:10.1101/2025.09.23.678148",
  "about": "(bioRxiv, 2025)",
  "key": {"IRF2": {"target": "T1, IRF2 (mouse, UniProt P23906 1-349)", "T1 sequence": "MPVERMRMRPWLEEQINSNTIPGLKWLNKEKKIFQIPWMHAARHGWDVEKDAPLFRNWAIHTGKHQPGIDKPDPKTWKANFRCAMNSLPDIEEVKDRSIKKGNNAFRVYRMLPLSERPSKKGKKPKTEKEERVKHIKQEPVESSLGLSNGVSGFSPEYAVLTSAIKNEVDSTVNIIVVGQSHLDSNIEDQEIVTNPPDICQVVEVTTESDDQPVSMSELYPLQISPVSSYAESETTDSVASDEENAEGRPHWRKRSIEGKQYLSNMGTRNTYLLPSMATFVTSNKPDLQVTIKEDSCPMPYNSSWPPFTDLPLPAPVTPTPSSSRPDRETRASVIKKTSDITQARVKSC", "assay": "EMSA"}, "IRF1": {"target": "T2, IRF1 (mouse, UniProt P15314 1-329)", "T2 sequence": "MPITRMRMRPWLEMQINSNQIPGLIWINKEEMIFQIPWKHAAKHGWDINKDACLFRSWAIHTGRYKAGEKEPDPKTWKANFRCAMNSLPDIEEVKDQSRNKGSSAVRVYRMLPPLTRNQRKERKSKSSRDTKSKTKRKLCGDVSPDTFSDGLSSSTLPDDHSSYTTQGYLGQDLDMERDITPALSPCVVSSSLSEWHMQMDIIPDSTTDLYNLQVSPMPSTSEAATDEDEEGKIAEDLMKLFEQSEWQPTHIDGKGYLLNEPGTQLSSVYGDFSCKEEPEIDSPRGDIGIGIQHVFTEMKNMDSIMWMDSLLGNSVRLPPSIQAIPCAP", "assay": "EMSA"}, "SPOP": {"target": "SPOP (mouse, UniProt Q6ZWS8 28-329)", "assay": "EMSA"}, "IRF1;IRF2": {"target": "T3, IRF1;IRF2 (mouse;mouse, UniProt P15314;P23906 1-329;1-349, |)", "T3 sequence 1": "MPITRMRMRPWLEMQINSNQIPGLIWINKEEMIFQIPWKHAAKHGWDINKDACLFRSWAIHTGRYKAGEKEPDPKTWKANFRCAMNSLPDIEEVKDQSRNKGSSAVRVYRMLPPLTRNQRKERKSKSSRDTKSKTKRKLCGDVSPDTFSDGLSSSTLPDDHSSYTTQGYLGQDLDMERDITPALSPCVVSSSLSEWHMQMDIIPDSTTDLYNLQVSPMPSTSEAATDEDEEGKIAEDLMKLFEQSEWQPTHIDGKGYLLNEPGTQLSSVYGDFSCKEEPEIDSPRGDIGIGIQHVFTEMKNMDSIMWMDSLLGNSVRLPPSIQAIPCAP", "T3 sequence 2": "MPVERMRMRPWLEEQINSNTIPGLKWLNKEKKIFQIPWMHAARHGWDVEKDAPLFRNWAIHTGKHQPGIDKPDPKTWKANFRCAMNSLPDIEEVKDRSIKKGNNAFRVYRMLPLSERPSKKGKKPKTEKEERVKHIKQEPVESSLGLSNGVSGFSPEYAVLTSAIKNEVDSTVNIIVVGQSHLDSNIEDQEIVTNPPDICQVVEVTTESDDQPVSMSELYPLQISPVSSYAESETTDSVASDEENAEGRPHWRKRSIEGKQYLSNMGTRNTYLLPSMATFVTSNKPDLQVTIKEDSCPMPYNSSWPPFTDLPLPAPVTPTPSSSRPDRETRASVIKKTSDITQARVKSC", "assay": "EMSA"}, "IRF1;SPOP": {"target": "IRF1;SPOP (mouse;mouse, UniProt P15314;Q6ZWS8 1-329;28-329, |)", "assay": "EMSA"}, "[1]": {"target": "T4, recombinant full-length mouse IRF1 (mouse, UniProt P15314 1-329)", "T4 sequence (looked up)": "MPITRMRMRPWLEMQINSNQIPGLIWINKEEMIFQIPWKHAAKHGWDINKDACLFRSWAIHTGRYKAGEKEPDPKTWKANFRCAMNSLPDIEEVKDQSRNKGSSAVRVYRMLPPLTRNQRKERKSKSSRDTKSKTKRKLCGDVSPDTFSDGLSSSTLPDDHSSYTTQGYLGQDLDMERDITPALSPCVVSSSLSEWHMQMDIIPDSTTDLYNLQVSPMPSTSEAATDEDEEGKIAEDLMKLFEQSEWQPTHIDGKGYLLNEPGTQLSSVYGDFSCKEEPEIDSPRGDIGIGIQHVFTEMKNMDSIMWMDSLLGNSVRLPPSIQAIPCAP", "assay": "native gel or EMSA"}},
  "data": [
    {"binder": "Gbp2 promoter probe, single IRF motif (dsDNA) DNA 1: CAGTGAAAGTGAAACTAAAAAGCAC DNA 2: GTGCTTTTTAGTTTCACTTTCACTG", "values": [
      {"measurement": "binding result", "setting": "IRF2", "value": "binds"},
      {"measurement": "binding result", "setting": "IRF1", "value": "binds"},
      {"measurement": "binding result", "setting": "SPOP", "value": "no binding"},
      {"measurement": "binding result", "setting": "IRF1;IRF2", "value": "binds"},
      {"measurement": "binding result", "setting": "IRF1;SPOP", "value": "binds"}
    ]},
    {"binder": "DNA with a single AAA core (dsDNA) DNA 1: CAGTGAAAGTGCCCCTACCCAGCAC DNA 2: GTGCTGGGTAGGGGCACTTTCACTG", "values": [
      {"measurement": "binding result", "setting": "IRF1", "value": "no binding"}
    ]},
    {"binder": "recombinant mouse SPOP (aa28-329) (domain or fragment, UniProt Q6ZWS8 28-329, looked up) KVVKFSYMWTINNFSFCREEMGEVIKSSTFSSGANDKLKWCLRVNPKGLDEESKDYLSLYLLLVSCPKSEVRAKFKFSILNAKGEETKAMESQRAYRFVQGKDWGFKKFIRRDFLLDEANGLLPDDKLTLFCEVSVVQDSVNISGQNTMNMVKVPECRLADELGGLWENSRFTDCCLCVAGQEFQAHKAILAARSPVFSAMFEHEMEESKKNRVEINDVEPEVFKEMMCFIYTGKAPNLDKMADDLLAAADKYALERLKVMCEDALCSNLSVENAAEILILADLHSADQLKTQAVDFINYHA", "values": [
      {"measurement": "binding result", "setting": "[1]", "value": "binds"}
    ]},
    {"binder": "Gbp2 probe, GAAA core and 5'-flanking AA mutated (dsDNA) DNA 1: CAGTGCCCGTGCCCCTACCCAGCAC DNA 2: GTGCTGGGTAGGGGCACGGGCACTG", "values": [
      {"measurement": "binding result", "setting": "IRF2", "value": "no binding"},
      {"measurement": "binding result", "setting": "IRF1", "value": "no binding"}
    ]}
  ]
}
